Reference: paper PMC6220335, “Molecular structure of promoter-bound yeast TFIID” (Nature Communications, 2018)

T1: Taf12, subunit of Komagataella phaffii TFIID (Komagataella phaffii, UniProt F2QSK7 1-609)
T1 construct: Taf12, TFIID subunit of the yeast Komagataella phaffii (formerly Pichia pastoris); histone-fold domain modelled in the cryo-EM map; source: endogenous, K. phaffii nuclear extract; co-purified in TFIID by SBP-tagged Taf2 (streptavidin beads, sucrose gradient)
T1 sequence (looked up): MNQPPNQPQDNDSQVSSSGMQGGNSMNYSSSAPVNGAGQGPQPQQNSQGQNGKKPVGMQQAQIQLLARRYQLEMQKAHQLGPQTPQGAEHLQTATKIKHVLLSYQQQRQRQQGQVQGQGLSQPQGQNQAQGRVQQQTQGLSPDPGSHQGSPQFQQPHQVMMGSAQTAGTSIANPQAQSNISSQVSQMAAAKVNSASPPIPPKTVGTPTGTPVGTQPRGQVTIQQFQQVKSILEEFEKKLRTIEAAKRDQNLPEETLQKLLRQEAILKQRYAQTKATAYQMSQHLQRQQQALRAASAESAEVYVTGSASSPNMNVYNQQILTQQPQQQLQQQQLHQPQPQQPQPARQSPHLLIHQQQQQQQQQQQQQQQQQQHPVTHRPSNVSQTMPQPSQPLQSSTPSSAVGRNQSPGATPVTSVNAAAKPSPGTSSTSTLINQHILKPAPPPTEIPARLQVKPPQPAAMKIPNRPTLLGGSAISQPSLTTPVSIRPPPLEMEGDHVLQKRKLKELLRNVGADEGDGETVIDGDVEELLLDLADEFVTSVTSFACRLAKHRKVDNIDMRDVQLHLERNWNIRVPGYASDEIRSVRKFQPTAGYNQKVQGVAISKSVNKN

T2: Taf4, subunit of Komagataella phaffii TFIID (Komagataella phaffii, UniProt F2QWX2 1-411)
T2 construct: Taf4, TFIID subunit of the yeast Komagataella phaffii (formerly Pichia pastoris); histone-fold domain modelled in the cryo-EM map; source: endogenous, K. phaffii nuclear extract; co-purified in TFIID by SBP-tagged Taf2 (streptavidin beads, sucrose gradient)
T2 sequence (looked up): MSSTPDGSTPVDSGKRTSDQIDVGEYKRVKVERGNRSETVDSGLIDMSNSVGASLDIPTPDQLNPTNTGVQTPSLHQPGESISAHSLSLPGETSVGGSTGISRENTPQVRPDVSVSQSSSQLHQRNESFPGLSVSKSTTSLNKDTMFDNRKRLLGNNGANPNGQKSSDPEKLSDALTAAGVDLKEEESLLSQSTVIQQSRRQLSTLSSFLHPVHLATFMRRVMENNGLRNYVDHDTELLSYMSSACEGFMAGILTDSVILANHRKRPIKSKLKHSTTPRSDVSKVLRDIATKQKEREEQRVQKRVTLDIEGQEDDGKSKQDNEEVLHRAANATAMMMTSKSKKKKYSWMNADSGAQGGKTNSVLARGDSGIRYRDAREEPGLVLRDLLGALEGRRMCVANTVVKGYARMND

T3: Taf5, subunit of Komagataella phaffii TFIID (Komagataella phaffii, UniProt F2QWD3 1-722)
T3 construct: Taf5, TFIID subunit of the yeast Komagataella phaffii (formerly Pichia pastoris); WD40 repeat and NTD (residues 99–243) modelled in the cryo-EM map; two copies in holo-TFIID; source: endogenous, K. phaffii nuclear extract; co-purified in TFIID by SBP-tagged Taf2 (streptavidin beads, sucrose gradient)
T3 sequence (looked up): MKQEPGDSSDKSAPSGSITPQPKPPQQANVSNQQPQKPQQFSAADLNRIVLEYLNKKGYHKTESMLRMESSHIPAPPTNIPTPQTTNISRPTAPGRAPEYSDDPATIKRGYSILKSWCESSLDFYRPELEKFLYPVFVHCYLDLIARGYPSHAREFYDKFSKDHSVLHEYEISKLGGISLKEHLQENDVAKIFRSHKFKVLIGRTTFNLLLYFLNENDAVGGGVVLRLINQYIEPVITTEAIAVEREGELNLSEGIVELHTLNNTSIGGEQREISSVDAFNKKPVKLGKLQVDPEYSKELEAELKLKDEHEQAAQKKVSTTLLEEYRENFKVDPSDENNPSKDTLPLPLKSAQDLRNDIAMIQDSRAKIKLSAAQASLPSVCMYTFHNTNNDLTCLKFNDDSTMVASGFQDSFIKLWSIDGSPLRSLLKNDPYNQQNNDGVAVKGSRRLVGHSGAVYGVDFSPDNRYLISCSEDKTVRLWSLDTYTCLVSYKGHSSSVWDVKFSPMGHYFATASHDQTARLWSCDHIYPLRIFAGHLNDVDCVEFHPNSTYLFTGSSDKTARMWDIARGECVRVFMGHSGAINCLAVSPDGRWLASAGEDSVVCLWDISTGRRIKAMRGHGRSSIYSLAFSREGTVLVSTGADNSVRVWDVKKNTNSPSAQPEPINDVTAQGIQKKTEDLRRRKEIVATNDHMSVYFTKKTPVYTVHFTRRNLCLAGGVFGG

T4: Taf8, subunit of Komagataella phaffii TFIID (Komagataella phaffii, UniProt F2QT15 1-517)
T4 construct: Taf8, TFIID subunit of the yeast Komagataella phaffii (formerly Pichia pastoris); putative helices placed in the cryo-EM map; also called KpTaf8; source: endogenous, K. phaffii nuclear extract; co-purified in TFIID by SBP-tagged Taf2 (streptavidin beads, sucrose gradient)
T4 sequence (looked up): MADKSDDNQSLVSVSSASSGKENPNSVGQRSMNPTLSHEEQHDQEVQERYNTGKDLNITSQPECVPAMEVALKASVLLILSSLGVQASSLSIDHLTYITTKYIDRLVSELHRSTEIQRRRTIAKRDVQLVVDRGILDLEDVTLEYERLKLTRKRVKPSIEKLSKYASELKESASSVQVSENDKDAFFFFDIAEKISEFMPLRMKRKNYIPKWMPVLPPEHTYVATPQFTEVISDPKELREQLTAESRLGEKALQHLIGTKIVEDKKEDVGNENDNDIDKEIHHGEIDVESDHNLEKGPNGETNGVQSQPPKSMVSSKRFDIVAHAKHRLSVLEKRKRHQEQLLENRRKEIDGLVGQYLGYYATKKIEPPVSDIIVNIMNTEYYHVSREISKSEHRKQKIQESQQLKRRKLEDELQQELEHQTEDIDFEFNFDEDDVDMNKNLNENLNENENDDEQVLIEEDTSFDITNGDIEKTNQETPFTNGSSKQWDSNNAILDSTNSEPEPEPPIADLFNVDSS


What was measured:
[1] = biological target: T1, Taf12, subunit of Komagataella phaffii …; assay: cross-linking; 50 µg purified TFIID, 3 mM BS3, 2 h at 25 °C; trypsin, SCX fractionation, Orbitrap Fusion MS; pLink and Nexus, 5% FDR; settings: both partners purified
[2] = biological target: T2, Taf4, subunit of Komagataella phaffii …; assay: as above; settings: both partners purified
[3] = biological target: T3, Taf5, subunit of Komagataella phaffii …; assay: as above; settings: both partners purified
[4] = biological target: T5, Taf2 with C-terminal streptavidin-binding peptide tag, subunit of Komagataella phaffii TFIID (Komagataella phaffii, UniProt F2QRH9 1-1571); assay: affinity purification with mass spectrometry; TFIID purified from K. phaffii nuclear extract by the SBP tag at the C-terminus of Taf2 (streptavidin beads, 250 mM potassium acetate, elution with 10 mM biotin, 10–30% sucrose gradient); SDS-PAGE and mass spectrometry of the purified complex; settings: partners not purified
T5 construct: Taf2, TFIID subunit of the yeast Komagataella phaffii (formerly Pichia pastoris); residues 36 to 1194 modelled in the cryo-EM map; bait of the purification; also called SBP-tagged Taf2; source: K. phaffii strain with SBP-tagged Taf2, nuclear extract; purified (streptavidin beads, biotin elution, sucrose gradient)

[5] = biological target: T4, Taf8, subunit of Komagataella phaffii …; assay: cryo-EM structure; purified TFIID (0.4 µM) with two-fold excess of TFIIA and 2.5–3-fold excess of pGAP promoter DNA, cross-linked with 0.1% glutaraldehyde; focused refinement of the lobes (Taf2 lobe 4.5 Å, Twin lobe 4.8 Å); homology models docked; settings: both partners purified

| Binder | binding result [1] | binding result [2] | binding result [3] | binding result [4] | binding result [5] |
| --- | --- | --- | --- | --- | --- |
| Taf11, subunit of Komagataella phaffii TFIID (natural protein, UniProt F2QRB1 1-281, looked up, Taf11, TFIID subunit of the yeast Komagataella phaffii (formerly Pichia pastoris); histone-fold domain modelled in the cryo-EM map; source: endogenous, K. phaffii nuclear extract; co-purified in TFIID by SBP-tagged Taf2 (streptavidin beads, sucrose gradient)) MSPKPESEIDQGPSVSVTSAEEKSRLEEVKDVHEDPKAEEGLVSAPQGSDTLGQEGKTEKEQNEAKGDIEEESEESAEEDEEEEEEIVDDQISYALNYLFQDIHEKIRLRETQRDTTQDEFELSRQEKVGLLLENFDQDQMTRYEFFRRANVNKSVAKRIVQSVLGQSINNNVALLVSTVSKMFVGEMVEKAKEVQSRRQKAQILEQISQRKAAIKNIRKRDLDESVVDQIMNSKRIRIPKDEPLSPEDIREAWRLYQLETNVLPSNQWRRQGGGDGNMFR | binds | binds | binds |  |  |
| Taf14, subunit of Komagataella phaffii TFIID (natural protein, UniProt F2QLE3 1-247, looked up, Taf14, yeast-specific TFIID subunit of Komagataella phaffii (formerly Pichia pastoris); YEATS domain docked in the Taf2 lobe of the cryo-EM map; source: endogenous, K. phaffii nuclear extract; co-purified in TFIID by SBP-tagged Taf2 (streptavidin beads, sucrose gradient)) MSDLKRTVRITTTQNVLKDIPPIEKGFPMRKWSISVSLLNDQGKEIPATIFDKVTYHLHPTFENPVRVFKQPPFKIEEQGWGEFDMKIALTIAEKGGERKISHDLNFLKEKYIVDHVISVPTNKPGLLALLAESGPVPSSEGATTPGLSSVTEKRKTSLVGDVKAKKVKTSSGAVKGGVDLEKLADGLTKLSEDDLLGVVQMVTDNRSPEMNIKNDVDEGEFTMDLYSLPDSLLKSLWEYVKKHADV |  |  |  | binds | binds |
